# Results: the supplement of paper PMC9112550, “Optimization of the antimicrobial peptide Bac7 by deep mutational scanning” (BMC Biology, 2022)
# Tested on: Escherichia coli TOP10
# Assay: shrunken log2 fold change of peptide-encoding DNA abundance (4.5 h post-induction vs induction); higher = less antimicrobial activity (less host growth inhibition)
# Conditions: time post-induction: 4.5 h; library: site-saturation at positions 5, 18, 19, 20
# 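Note: peptides expressed intracellularly from a pBAD plasmid library in pooled LB shake-flask culture, induced with 0.3% L-arabinose, DNA abundance read by NGS, three biological replicates, DESeq2 with apeglm shrinkage.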
row,Sequence,shrunken log2 fold change
1,RRIRRRPPRLPRPRPRPSKLPRP,-0.0224
2,RRIRWRPPRLPRPRPRPCQDPRP,-0.0575
3,RRIRVRPPRLPRPRPRPSTVPRP,-0.0673
4,RRIRSRPPRLPRPRPRPIHWPRP,0.151
5,RRIRRRPPRLPRPRPRPHTVPRP,0.0423
6,RRIRARPPRLPRPRPRPNHCPRP,0.956
7,RRIRRRPPRLPRPRPRPGMAPRP,0.339
8,RRIRSRPPRLPRPRPRPNDAPRP,0.0331
9,RRIRSRPPRLPRPRPRPPYEPRP,0.0519
10,RRIRSRPPRLPRPRPRPCCCPRP,-0.000964
11,RRIRKRPPRLPRPRPRPMITPRP,-0.278
12,RRIRNRPPRLPRPRPRPEQVPRP,0.0249
13,RRIRFRPPRLPRPRPRPCRSPRP,0.974
14,RRIRPRPPRLPRPRPRPKANPRP,0.0243
15,RRIRNRPPRLPRPRPRPCLPPRP,-0.217
16,RRIRSRPPRLPRPRPRPQEEPRP,-0.0262
17,RRIRNRPPRLPRPRPRPDYKPRP,0.0574
18,RRIRERPPRLPRPRPRPPKQPRP,0.0175
19,RRIRRRPPRLPRPRPRPNCQPRP,0.0764
20,RRIRNRPPRLPRPRPRPEWYPRP,-0.451
21,RRIRYRPPRLPRPRPRPTPIPRP,-0.158
22,RRIRSRPPRLPRPRPRPSHFPRP,-0.182
23,RRIRTRPPRLPRPRPRPLVRPRP,0.114
24,RRIRNRPPRLPRPRPRPGMKPRP,-0.272
25,RRIRKRPPRLPRPRPRPFGIPRP,-0.00674

row,Sequence,shrunken log2 fold change
1,RRIRRRPPRLPRPRPRPVDFPRP,0.178
2,RRIRPRPPRLPRPRPRPLVGPRP,0.408
3,RRIRHRPPRLPRPRPRPCPTPRP,-0.258
4,RRIRSRPPRLPRPRPRPGVPPRP,0.318
5,RRIRMRPPRLPRPRPRPPWVPRP,0.241
6,RRIRDRPPRLPRPRPRPMAGPRP,0.00396
7,RRIRQRPPRLPRPRPRPLRPPRP,0.699
8,RRIRMRPPRLPRPRPRPEGVPRP,3.21
9,RRIRRRPPRLPRPRPRPALAPRP,0.516
10,RRIRHRPPRLPRPRPRPWTMPRP,-0.344
11,RRIRMRPPRLPRPRPRPDRAPRP,0.861
12,RRIRCRPPRLPRPRPRPNEEPRP,-0.00783
13,RRIRHRPPRLPRPRPRPKSEPRP,-0.00614
14,RRIRDRPPRLPRPRPRPLTAPRP,0.48
15,RRIRTRPPRLPRPRPRPLMNPRP,-0.852
16,RRIRSRPPRLPRPRPRPISMPRP,-0.145
17,RRIRMRPPRLPRPRPRPKNAPRP,0.901
18,RRIRVRPPRLPRPRPRPNIRPRP,-0.664
19,RRIRLRPPRLPRPRPRPNMHPRP,-0.565
20,RRIRFRPPRLPRPRPRPKGRPRP,-0.0884
21,RRIRPRPPRLPRPRPRPTPKPRP,0.528
22,RRIRWRPPRLPRPRPRPGSKPRP,0.0611
23,RRIRTRPPRLPRPRPRPSLHPRP,-0.604
24,RRIRERPPRLPRPRPRPFRSPRP,-0.0241
25,RRIRDRPPRLPRPRPRPNCEPRP,0.133

row,Sequence,shrunken log2 fold change
1,RRIRERPPRLPRPRPRPDDAPRP,-0.179
2,RRIRNRPPRLPRPRPRPYDTPRP,-0.22
3,RRIRHRPPRLPRPRPRPATEPRP,0.29
4,RRIRMRPPRLPRPRPRPKLSPRP,0.982
5,RRIRNRPPRLPRPRPRPKFEPRP,0.0146
6,RRIRVRPPRLPRPRPRPCSSPRP,-0.201
7,RRIRMRPPRLPRPRPRPHMSPRP,-0.123
8,RRIRYRPPRLPRPRPRPHKHPRP,-0.91
9,RRIRQRPPRLPRPRPRPMIAPRP,-0.00222
10,RRIRIRPPRLPRPRPRPECWPRP,0.202
11,RRIRKRPPRLPRPRPRPAPAPRP,1.05
12,RRIRMRPPRLPRPRPRPHQRPRP,0.236
13,RRIRQRPPRLPRPRPRPSPPPRP,0.169
14,RRIRFRPPRLPRPRPRPFTLPRP,0.0331
15,RRIRCRPPRLPRPRPRPTYKPRP,-0.267
16,RRIRFRPPRLPRPRPRPPPLPRP,1.38
17,RRIRKRPPRLPRPRPRPNPRPRP,0.228
18,RRIRTRPPRLPRPRPRPYCQPRP,-0.804
19,RRIRWRPPRLPRPRPRPCRPPRP,0.115
20,RRIRYRPPRLPRPRPRPKGFPRP,-0.0319
21,RRIRVRPPRLPRPRPRPQAGPRP,0.0465
22,RRIRMRPPRLPRPRPRPNKLPRP,-0.145
23,RRIRIRPPRLPRPRPRPHPYPRP,-0.0313
24,RRIRARPPRLPRPRPRPCTVPRP,-0.26
25,RRIRTRPPRLPRPRPRPVWFPRP,0.0412

row,Sequence,shrunken log2 fold change
1,RRIRCRPPRLPRPRPRPANTPRP,-0.265
2,RRIRHRPPRLPRPRPRPPHIPRP,-0.287
3,RRIRDRPPRLPRPRPRPMATPRP,0.415
4,RRIRDRPPRLPRPRPRPNKQPRP,-0.0169
5,RRIRFRPPRLPRPRPRPNIGPRP,-0.0107
6,RRIRERPPRLPRPRPRPDFLPRP,0.0309
7,RRIRIRPPRLPRPRPRPRYDPRP,-0.285
8,RRIRRRPPRLPRPRPRPGTVPRP,0.0962
9,RRIRQRPPRLPRPRPRPGTTPRP,0.155
10,RRIRFRPPRLPRPRPRPVHAPRP,0.184
11,RRIRMRPPRLPRPRPRPFTNPRP,3.34
12,RRIRTRPPRLPRPRPRPPLLPRP,0.172
13,RRIRYRPPRLPRPRPRPGEMPRP,-0.0218
14,RRIRTRPPRLPRPRPRPFTTPRP,-0.0286
15,RRIRARPPRLPRPRPRPKIHPRP,-0.0619
16,RRIRFRPPRLPRPRPRPEFWPRP,0.264
17,RRIRYRPPRLPRPRPRPQVTPRP,-0.00804
18,RRIRCRPPRLPRPRPRPPHGPRP,0.499
19,RRIRFRPPRLPRPRPRPTVNPRP,2.04
20,RRIRVRPPRLPRPRPRPSPFPRP,-0.442
21,RRIRLRPPRLPRPRPRPGSFPRP,0.236
22,RRIRYRPPRLPRPRPRPAAGPRP,-0.197
23,RRIRVRPPRLPRPRPRPIWWPRP,1.44
24,RRIRMRPPRLPRPRPRPMYKPRP,-0.472
25,RRIRDRPPRLPRPRPRPQMVPRP,-0.0637

row,Sequence,shrunken log2 fold change
1,RRIRVRPPRLPRPRPRPDILPRP,0.3
2,RRIRKRPPRLPRPRPRPQKVPRP,-0.0143
3,RRIRIRPPRLPRPRPRPYGTPRP,-0.894
4,RRIRSRPPRLPRPRPRPEQTPRP,0.709
5,RRIRKRPPRLPRPRPRPTMVPRP,0.27
6,RRIRARPPRLPRPRPRPFHKPRP,-0.148
7,RRIRQRPPRLPRPRPRPHFQPRP,-0.108
8,RRIRRRPPRLPRPRPRPHKMPRP,-0.167
9,RRIRVRPPRLPRPRPRPQRIPRP,-0.544
10,RRIRYRPPRLPRPRPRPRYVPRP,-0.0777
11,RRIRSRPPRLPRPRPRPNPMPRP,-0.111
12,RRIRDRPPRLPRPRPRPYAFPRP,-0.187
13,RRIRKRPPRLPRPRPRPRPSPRP,0.585
14,RRIRWRPPRLPRPRPRPPSPPRP,0.598
15,RRIRKRPPRLPRPRPRPGCAPRP,0.82
16,RRIRPRPPRLPRPRPRPKNGPRP,0.069
17,RRIRMRPPRLPRPRPRPDVYPRP,-0.119
18,RRIRQRPPRLPRPRPRPVTIPRP,-0.0898
19,RRIRVRPPRLPRPRPRPTWSPRP,0.0201
20,RRIRDRPPRLPRPRPRPDPIPRP,0.278
21,RRIRHRPPRLPRPRPRPFLQPRP,0.0325
22,RRIRDRPPRLPRPRPRPNHPPRP,-0.222
23,RRIRQRPPRLPRPRPRPFHCPRP,-0.192
24,RRIRVRPPRLPRPRPRPTTQPRP,0.0531
25,RRIRWRPPRLPRPRPRPSSQPRP,-0.317

row,Sequence,shrunken log2 fold change
1,RRIRLRPPRLPRPRPRPIIRPRP,-0.19
2,RRIRDRPPRLPRPRPRPEWGPRP,0.0825
3,RRIRWRPPRLPRPRPRPAKWPRP,0.386
4,RRIRWRPPRLPRPRPRPAIIPRP,-0.296
5,RRIRSRPPRLPRPRPRPLFNPRP,-0.632
6,RRIRSRPPRLPRPRPRPYQHPRP,-0.934
7,RRIRTRPPRLPRPRPRPNKIPRP,-0.799
8,RRIRNRPPRLPRPRPRPSRKPRP,-0.21
9,RRIRTRPPRLPRPRPRPGHQPRP,-0.199
10,RRIRYRPPRLPRPRPRPNWGPRP,-0.0851
11,RRIRCRPPRLPRPRPRPFSWPRP,-0.141
12,RRIRFRPPRLPRPRPRPTRFPRP,0.429
13,RRIRERPPRLPRPRPRPMCCPRP,-0.113
14,RRIRYRPPRLPRPRPRPIFEPRP,-0.833
15,RRIRQRPPRLPRPRPRPWHSPRP,-0.00968
16,RRIRRRPPRLPRPRPRPFYNPRP,-0.139
17,RRIRPRPPRLPRPRPRPAMWPRP,0.251
18,RRIRLRPPRLPRPRPRPKYAPRP,0.0149
19,RRIRWRPPRLPRPRPRPKRLPRP,2.54
20,RRIRHRPPRLPRPRPRPFCDPRP,0.128
21,RRIRTRPPRLPRPRPRPRFNPRP,-0.286
22,RRIRARPPRLPRPRPRPSYFPRP,-0.555
23,RRIRMRPPRLPRPRPRPDRQPRP,0.239
24,RRIRFRPPRLPRPRPRPCKCPRP,-0.317
25,RRIRGRPPRLPRPRPRPRYPPRP,0.232
